Source: patent publication US20180155451A1 (published 2018)

T1: FcγRIIa H (human, UniProt P12318 34-217)
T1 construct: extracellular domain; also called FcgRIIa H type; 2aH; not shown: His tag at the C terminus
T1 sequence (looked up): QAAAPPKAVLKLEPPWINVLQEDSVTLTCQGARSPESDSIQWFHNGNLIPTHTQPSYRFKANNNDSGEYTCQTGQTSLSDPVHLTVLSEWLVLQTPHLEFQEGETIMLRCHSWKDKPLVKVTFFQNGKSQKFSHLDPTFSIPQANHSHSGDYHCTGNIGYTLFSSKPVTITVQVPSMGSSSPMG


Target: T1, FcγRIIa H
Test: SPR Biacore, relative binding

Ho/Con_2aH	Binder
119 % of GpH7-B3/GpL16-k0 (=100)	GpH7-B3 variant I332_02A/GpL16-k0 (antibody, human IgG1, kappa, also called Ho Ab I332_02A) heavy: not shown light: DIVMTQSPLSLPVTPGEPASISCQASESLVHSNRNTYLHWYLQKPGQSPQLLIYKVSNRFSGVPDRFSGSGSGTDFTLKISRVEAEDVGVYYCSQNTHVPPTFGQGTKVEIERTVAAPSVFIFPPSDEQLKSGTASVVCLLNNFYPREAKVQWKVDNALQSGNSQESVTEQDSKDSTYSLSSTLTLSKADYEKHKVYACEVTHQGLSSPVTKSFNRGEC
111 % of GpH7-B3/GpL16-k0 (=100)	GpH7-B3 variant I332_04F/GpL16-k0 (antibody, human IgG1, kappa, also called Ho Ab I332_04F) heavy: not shown light: DIVMTQSPLSLPVTPGEPASISCQASESLVHSNRNTYLHWYLQKPGQSPQLLIYKVSNRFSGVPDRFSGSGSGTDFTLKISRVEAEDVGVYYCSQNTHVPPTFGQGTKVEIERTVAAPSVFIFPPSDEQLKSGTASVVCLLNNFYPREAKVQWKVDNALQSGNSQESVTEQDSKDSTYSLSSTLTLSKADYEKHKVYACEVTHQGLSSPVTKSFNRGEC
111 % of GpH7-B3/GpL16-k0 (=100)	GpH7-B3 variant G236_03V/GpL16-k0 (antibody, human IgG1, kappa, also called Ho Ab G236_03V) heavy: not shown light: DIVMTQSPLSLPVTPGEPASISCQASESLVHSNRNTYLHWYLQKPGQSPQLLIYKVSNRFSGVPDRFSGSGSGTDFTLKISRVEAEDVGVYYCSQNTHVPPTFGQGTKVEIERTVAAPSVFIFPPSDEQLKSGTASVVCLLNNFYPREAKVQWKVDNALQSGNSQESVTEQDSKDSTYSLSSTLTLSKADYEKHKVYACEVTHQGLSSPVTKSFNRGEC
136 % of GpH7-B3/GpL16-k0 (=100)	GpH7-B3 variant H268_09D/GpL16-k0 (antibody, human IgG1, kappa, also called Ho Ab H268_09D) heavy: not shown light: DIVMTQSPLSLPVTPGEPASISCQASESLVHSNRNTYLHWYLQKPGQSPQLLIYKVSNRFSGVPDRFSGSGSGTDFTLKISRVEAEDVGVYYCSQNTHVPPTFGQGTKVEIERTVAAPSVFIFPPSDEQLKSGTASVVCLLNNFYPREAKVQWKVDNALQSGNSQESVTEQDSKDSTYSLSSTLTLSKADYEKHKVYACEVTHQGLSSPVTKSFNRGEC
126 % of GpH7-B3/GpL16-k0 (=100)	GpH7-B3 variant H268_10E/GpL16-k0 (antibody, human IgG1, kappa, also called Ho Ab H268_10E) heavy: not shown light: DIVMTQSPLSLPVTPGEPASISCQASESLVHSNRNTYLHWYLQKPGQSPQLLIYKVSNRFSGVPDRFSGSGSGTDFTLKISRVEAEDVGVYYCSQNTHVPPTFGQGTKVEIERTVAAPSVFIFPPSDEQLKSGTASVVCLLNNFYPREAKVQWKVDNALQSGNSQESVTEQDSKDSTYSLSSTLTLSKADYEKHKVYACEVTHQGLSSPVTKSFNRGEC
130 % of GpH7-B3/GpL16-k0 (=100)	GpH7-B3 variant I332_09D/GpL16-k0 (antibody, human IgG1, kappa, also called Ho Ab I332_09D) heavy: not shown light: DIVMTQSPLSLPVTPGEPASISCQASESLVHSNRNTYLHWYLQKPGQSPQLLIYKVSNRFSGVPDRFSGSGSGTDFTLKISRVEAEDVGVYYCSQNTHVPPTFGQGTKVEIERTVAAPSVFIFPPSDEQLKSGTASVVCLLNNFYPREAKVQWKVDNALQSGNSQESVTEQDSKDSTYSLSSTLTLSKADYEKHKVYACEVTHQGLSSPVTKSFNRGEC
117 % of GpH7-B3/GpL16-k0 (=100)	GpH7-B3 variant I332_10E/GpL16-k0 (antibody, human IgG1, kappa, also called Ho Ab I332_10E) heavy: not shown light: DIVMTQSPLSLPVTPGEPASISCQASESLVHSNRNTYLHWYLQKPGQSPQLLIYKVSNRFSGVPDRFSGSGSGTDFTLKISRVEAEDVGVYYCSQNTHVPPTFGQGTKVEIERTVAAPSVFIFPPSDEQLKSGTASVVCLLNNFYPREAKVQWKVDNALQSGNSQESVTEQDSKDSTYSLSSTLTLSKADYEKHKVYACEVTHQGLSSPVTKSFNRGEC
106 % of GpH7-B3/GpL16-k0 (=100)	GpH7-B3 variant I332_03V/GpL16-k0 (antibody, human IgG1, kappa, also called Ho Ab I332_03V) heavy: not shown light: DIVMTQSPLSLPVTPGEPASISCQASESLVHSNRNTYLHWYLQKPGQSPQLLIYKVSNRFSGVPDRFSGSGSGTDFTLKISRVEAEDVGVYYCSQNTHVPPTFGQGTKVEIERTVAAPSVFIFPPSDEQLKSGTASVVCLLNNFYPREAKVQWKVDNALQSGNSQESVTEQDSKDSTYSLSSTLTLSKADYEKHKVYACEVTHQGLSSPVTKSFNRGEC
110 % of GpH7-B3/GpL16-k0 (=100)	GpH7-B3 variant H268_18N/GpL16-k0 (antibody, human IgG1, kappa, also called Ho Ab H268_18N) heavy: not shown light: DIVMTQSPLSLPVTPGEPASISCQASESLVHSNRNTYLHWYLQKPGQSPQLLIYKVSNRFSGVPDRFSGSGSGTDFTLKISRVEAEDVGVYYCSQNTHVPPTFGQGTKVEIERTVAAPSVFIFPPSDEQLKSGTASVVCLLNNFYPREAKVQWKVDNALQSGNSQESVTEQDSKDSTYSLSSTLTLSKADYEKHKVYACEVTHQGLSSPVTKSFNRGEC
114 % of GpH7-B3/GpL16-k0 (=100)	GpH7-B3 variant H268_13S/GpL16-k0 (antibody, human IgG1, kappa, also called Ho Ab H268_13S) heavy: not shown light: DIVMTQSPLSLPVTPGEPASISCQASESLVHSNRNTYLHWYLQKPGQSPQLLIYKVSNRFSGVPDRFSGSGSGTDFTLKISRVEAEDVGVYYCSQNTHVPPTFGQGTKVEIERTVAAPSVFIFPPSDEQLKSGTASVVCLLNNFYPREAKVQWKVDNALQSGNSQESVTEQDSKDSTYSLSSTLTLSKADYEKHKVYACEVTHQGLSSPVTKSFNRGEC
121 % of GpH7-B3/GpL16-k0 (=100)	GpH7-B3 variant I332_13S/GpL16-k0 (antibody, human IgG1, kappa, also called Ho Ab I332_13S) heavy: not shown light: DIVMTQSPLSLPVTPGEPASISCQASESLVHSNRNTYLHWYLQKPGQSPQLLIYKVSNRFSGVPDRFSGSGSGTDFTLKISRVEAEDVGVYYCSQNTHVPPTFGQGTKVEIERTVAAPSVFIFPPSDEQLKSGTASVVCLLNNFYPREAKVQWKVDNALQSGNSQESVTEQDSKDSTYSLSSTLTLSKADYEKHKVYACEVTHQGLSSPVTKSFNRGEC
122 % of GpH7-B3/GpL16-k0 (=100)	GpH7-B3 variant G236_10E/GpL16-k0 (antibody, human IgG1, kappa, also called Ho Ab G236_10E) heavy: not shown light: DIVMTQSPLSLPVTPGEPASISCQASESLVHSNRNTYLHWYLQKPGQSPQLLIYKVSNRFSGVPDRFSGSGSGTDFTLKISRVEAEDVGVYYCSQNTHVPPTFGQGTKVEIERTVAAPSVFIFPPSDEQLKSGTASVVCLLNNFYPREAKVQWKVDNALQSGNSQESVTEQDSKDSTYSLSSTLTLSKADYEKHKVYACEVTHQGLSSPVTKSFNRGEC
125 % of GpH7-B3/GpL16-k0 (=100)	GpH7-B3 variant I332_14T/GpL16-k0 (antibody, human IgG1, kappa, also called Ho Ab I332_14T) heavy: not shown light: DIVMTQSPLSLPVTPGEPASISCQASESLVHSNRNTYLHWYLQKPGQSPQLLIYKVSNRFSGVPDRFSGSGSGTDFTLKISRVEAEDVGVYYCSQNTHVPPTFGQGTKVEIERTVAAPSVFIFPPSDEQLKSGTASVVCLLNNFYPREAKVQWKVDNALQSGNSQESVTEQDSKDSTYSLSSTLTLSKADYEKHKVYACEVTHQGLSSPVTKSFNRGEC
114 % of GpH7-B3/GpL16-k0 (=100)	GpH7-B3 variant I332_06M/GpL16-k0 (antibody, human IgG1, kappa, also called Ho Ab I332_06M) heavy: not shown light: DIVMTQSPLSLPVTPGEPASISCQASESLVHSNRNTYLHWYLQKPGQSPQLLIYKVSNRFSGVPDRFSGSGSGTDFTLKISRVEAEDVGVYYCSQNTHVPPTFGQGTKVEIERTVAAPSVFIFPPSDEQLKSGTASVVCLLNNFYPREAKVQWKVDNALQSGNSQESVTEQDSKDSTYSLSSTLTLSKADYEKHKVYACEVTHQGLSSPVTKSFNRGEC
101 % of GpH7-B3/GpL16-k0 (=100)	GpH7-B3 variant G236_07I/GpL16-k0 (antibody, human IgG1, kappa, also called Ho Ab G236_07I) heavy: not shown light: DIVMTQSPLSLPVTPGEPASISCQASESLVHSNRNTYLHWYLQKPGQSPQLLIYKVSNRFSGVPDRFSGSGSGTDFTLKISRVEAEDVGVYYCSQNTHVPPTFGQGTKVEIERTVAAPSVFIFPPSDEQLKSGTASVVCLLNNFYPREAKVQWKVDNALQSGNSQESVTEQDSKDSTYSLSSTLTLSKADYEKHKVYACEVTHQGLSSPVTKSFNRGEC
110 % of GpH7-B3/GpL16-k0 (=100)	GpH7-B3 variant A330_12R/GpL16-k0 (antibody, human IgG1, kappa, also called Ho Ab A330_12R) heavy: not shown light: DIVMTQSPLSLPVTPGEPASISCQASESLVHSNRNTYLHWYLQKPGQSPQLLIYKVSNRFSGVPDRFSGSGSGTDFTLKISRVEAEDVGVYYCSQNTHVPPTFGQGTKVEIERTVAAPSVFIFPPSDEQLKSGTASVVCLLNNFYPREAKVQWKVDNALQSGNSQESVTEQDSKDSTYSLSSTLTLSKADYEKHKVYACEVTHQGLSSPVTKSFNRGEC
